In IntAct's records for PubMed 17167417:

B1: DNA replication regulator DPB11 (Saccharomyces cerevisiae), P47027 (parent)
chain: MKPFQGITFCPTAINNEILAKKISKKIIKLGGIFSKDLTRQVNVLVVGSTTNTNKFKFAVKHRFDIIFIDIQAIDDIYQLWLSGENILPDSNTATMTGSTYEMLKILYRRFSFKYLHNFNIFIGRITDTNITSIDSLVRSIKKLGCSSYNYQNFVIKDTSSHNDDDDQGQNGQISIFVTDTLLGARVNAAIEQNIPIVHFKWILDCQKRSALLPYDPYYLLPNIKDLPYDSIGSNSCDCWDKINTTFPTNIDAQSSLQRQQSSSTLTPSLPKTSSLLNKFKPKGEKIWDKAMSLQQHSKTNFSVLGQSPLSINNKQEDLSDNSTLIFKNCAFIIHHIFPGNHRSILTKIVVQNGGKIETSYLSGIYDHSYYIIPSNKALDSFNDLPEIIDDNDGIVTEFFIERCLYYQKLLHPIDLWSKPFLSTIEFQVSSSSKLLHHEFSSSPFLNVTITGFSGVELLHLTKVLNLLKPMGINYVEYLNKSTDILLINLAALPSIPKTHPLWSNEFSDLFTQFCINNNNDDPGDNNRKDFQNNSILRNSMKRKIEYIKKFHSIPVVTPAFIFKLLSAASGENNEIFLNNIKWCIICPRGHKDDFKCKIKKPYYTSISSEKKYQNNDPKIDKTILLKRNNSSLSEHSMKDTKNELLQKIRETDSGRKKRSVSSSIMDVSSERQMPDTKRIKLESLPKNFVPKQIKRTTSWGTIMSENVPTEQPTAISNPEEIPRTEEVSHTQVTYGSIQDKKRTASLEKPMRRQTRNQTKELDS
partner: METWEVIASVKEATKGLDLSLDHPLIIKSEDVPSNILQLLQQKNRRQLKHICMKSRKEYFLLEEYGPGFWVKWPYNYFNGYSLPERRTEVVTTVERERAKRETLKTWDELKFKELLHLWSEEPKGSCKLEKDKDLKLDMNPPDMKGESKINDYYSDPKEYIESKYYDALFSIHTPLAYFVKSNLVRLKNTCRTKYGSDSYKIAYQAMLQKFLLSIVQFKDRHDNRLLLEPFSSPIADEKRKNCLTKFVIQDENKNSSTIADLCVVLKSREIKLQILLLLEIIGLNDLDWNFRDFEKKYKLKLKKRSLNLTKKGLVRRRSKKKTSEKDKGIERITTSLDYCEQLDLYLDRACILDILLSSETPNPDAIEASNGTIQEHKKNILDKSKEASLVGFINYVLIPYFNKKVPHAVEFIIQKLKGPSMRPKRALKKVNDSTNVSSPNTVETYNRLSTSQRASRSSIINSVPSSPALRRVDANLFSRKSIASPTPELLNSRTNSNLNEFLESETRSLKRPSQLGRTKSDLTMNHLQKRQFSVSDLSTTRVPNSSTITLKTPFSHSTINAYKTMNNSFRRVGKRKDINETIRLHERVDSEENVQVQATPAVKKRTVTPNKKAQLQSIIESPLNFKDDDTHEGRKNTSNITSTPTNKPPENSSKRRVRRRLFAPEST

Variants of: B1
Settings: with sld3_yeast SLD3, P53135

Variant | effect of a mutation on the interaction
K55D;F56P | disrupting interaction strength
